Test results published in patent US20170304384A1 (AFFIRIS, published 2017).
Ends that are not written are not given here.

B1: monoclonal antibody PRR13 (antibody, mouse IgG2a, V domains shown)
VH: EVQLQQSAPELVKPGASVKMSCKASGYSFTDFYMKWVKQSHGKGLEWIGDIDPKNGDTFYNQKFKGRATLTVDKSSSTAYMQLNSLTTEDSAVYYCATYYGYTMDYWGQGTSVTVSS
VL: QIVLTQSPAIMSASLGERVTMTCTASSSVTSSYLHWYQQKPGSSPKLWIYSTSNLASGVPARFSGSGSGTSYSLTISSMEAEDAATYYCHQYRRPPRTFGGGTKLEIKR
notes: Mouse hybridoma mAb raised with p6773, typed mouse IgG2a; The consensus entries come from cDNA and appear to include the leader and the start of the constant region; also called mAB PRR13
B2: monoclonal antibody M1D1 (antibody, mouse IgM, V domains shown)
VH: EVQLVESGGGLVQPKGSLKLSCAASGFTFNTYAMNWVRQAPGKGLEWVARIRSKSNNYATYYADSVKDRFTISRDDSQSMLYLQMNNLKTEDTAMYYCVRHGEYGNPWFAYWGQGTLVTVSA
VL: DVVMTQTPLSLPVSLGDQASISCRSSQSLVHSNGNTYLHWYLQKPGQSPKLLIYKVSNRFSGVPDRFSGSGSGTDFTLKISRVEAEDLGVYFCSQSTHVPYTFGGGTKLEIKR
notes: Mouse hybridoma mAb raised with p7564, typed mouse IgM; The consensus entries appear to include the leader and the start of the constant region; also called mAB M1D1

Experiments:
[1] = biological target: T1, recombinant N-terminal 610 amino acids Huntingtin fragment recHTT610 (human, UniProt P42858 1-610); assay: recHTT610 capture ELISA
T1 construct: range 1-610; Expressed in HEK293 freestyle cells and captured from cell extract by anti-V5 antibody; also called recombinant Huntingtin; reHTT610; not shown: two C-terminal V5 tags
Protocol: Binding of antibodies to N-terminal fragment HTT610 was determined by a standard protein capture ELISA procedure using Maxisorb™ ELISA plates (Thermo; CatNr. 439454), coated with 50 μl of a 1:5000 rabbit anti V5 mAB (Sigma, CatNr. V8137), blocking with blocking buffer (PBS, 1% BSA, 0.1% Tween 20), capturing of recombinant Huntingtin from HEK cell extracts (100 ng/μl total protein) followed by incubation with several dilutions of mouse anti HTT sera (1:100; 1:300 and 1:900) or with mAB2166 as reference (diluted 1:2000; Millipore, Cat Nr. MAB2166) for 1 hour at RT. ELISA incubations, washing and detection procedures were performed according to standard procedures.
In contrast to specific anti peptide signals (FIG. 11), only 2 out of 9 mAB candidates, namely PRR13 and PRR18, specifically recognize recombinant Huntingtin when tested by recHTT610 capture ELISA (as explained in Example 1). These two candidates provided an outstanding signal to noise ratio (i.e. >=4; calculated reHTT610-specific signal: HEK ctrl extracts), and PRR13 was selected for epitope characterization (see Example 4) and variable chain sequencing (see below). PRR13 was determined as IgG subtype mouse IgG2a.

peptide p6773 = biological target: T2, peptide p6773 (human, not fully specified (residue 18)); assay: peptide ELISA / peptide microarray
T2 peptide: LPQPPPQAQPLLPQPQPC

peptide p7552 = biological target: T3, peptide p7552 (human, not fully specified (residue 1)); assay: peptide ELISA at a mAB concentration of 1 ng/µl
T3 peptide: CSSEIVLD

peptide p7562 = biological target: T4, peptide p7562 (human, not fully specified (residue 1)); assay: peptide ELISA at a mAB concentration of 1 ng/µl
T4 peptide: CDSSEIVLD

peptide p7605 = biological target: T5, peptide p7605 (human, not fully specified (residue 1)); assay: peptide ELISA
T5 peptide: CSEIVL

peptide p7564 = biological target: T6, peptide p7564 (human, not fully specified (residue 1)); assay: peptide ELISA
T6 construct: also called cleaved peptide
T6 peptide: CPSDSSEIVLD

T1 sequence (P42858 1-610): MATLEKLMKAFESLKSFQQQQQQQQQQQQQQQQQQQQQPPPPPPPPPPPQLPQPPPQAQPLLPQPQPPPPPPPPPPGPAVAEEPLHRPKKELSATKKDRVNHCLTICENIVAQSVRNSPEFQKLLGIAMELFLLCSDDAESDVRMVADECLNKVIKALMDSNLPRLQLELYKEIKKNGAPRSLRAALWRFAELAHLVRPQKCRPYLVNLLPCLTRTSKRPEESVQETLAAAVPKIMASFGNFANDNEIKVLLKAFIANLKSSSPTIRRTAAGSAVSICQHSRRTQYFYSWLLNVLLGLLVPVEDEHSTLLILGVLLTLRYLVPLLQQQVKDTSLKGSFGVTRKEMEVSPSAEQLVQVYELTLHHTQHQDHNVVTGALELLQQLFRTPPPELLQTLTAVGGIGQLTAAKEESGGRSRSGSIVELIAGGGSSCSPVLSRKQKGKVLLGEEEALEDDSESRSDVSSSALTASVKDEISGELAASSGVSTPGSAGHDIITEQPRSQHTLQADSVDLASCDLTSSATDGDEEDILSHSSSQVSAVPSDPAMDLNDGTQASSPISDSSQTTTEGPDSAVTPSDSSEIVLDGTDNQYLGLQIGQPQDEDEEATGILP

| Binder | signal to noise ratio (reHTT610-specific signal : HEK ctrl extracts) [1] | binding result (peptide p6773) | binding result (peptide p7552) | binding result (peptide p7562) | binding result (peptide p7605) | binding result (peptide p7564) |
| --- | --- | --- | --- | --- | --- | --- |
| B1 | ≥ 4 ratio | binds |  |  |  |  |
| B2 |  |  | binds | binds | no binding (tested: mAB concentration of 1 ng/µl) | binds |
